Entries after “also recorded” stand apart in the source; their conditions may differ.
Tests used:
[1] = Stability of As-LHP complexes in Milli-Q water by XAS; assay type: physicochemical; conditions: 37° C.; for stability in Milli-Q water: XANES
Experimental: The stability of As-LHP complexes was studied by XAS. Samples were prepared by dissolving HyAs(LHP), MeAs(LHP) or PhAs(LHP) (1.5 mM) in Milli-Q water which was maintained at 37° C. Immediately prior to analysis the arsenic-peptide solution (600 μL) was mixed with ethylene glycol (300 μL) to prevent crystallisation during rapid freezing. The resultant solution (1 mM final As concentration) was transferred by syringe to the sample holder which was sealed with Kapton tape. The sample was then rapidly submerged in liquid nitrogen and transferred to the liquid helium cryostat where it was analysed at 10° K.
Arsenic K-edge XAS data were collected at the Australian National Beamline Facility (ANBF, beamline 20B) KEK, Tsukuba, Japan with a beam energy of 2.5 GeV, and beam current of 300-400 mA. A Si[111] channel-cut monochromator was detuned by 50% to reject harmonics. All spectra were recorded in fluorescence mode at ˜10° K (maintained with a closed-cycle He Cryolndustries REF-1577-D22 cryostat) using a 36-element Ge-array detector (Eurisys/Canberra Industries) and a 1-mm vertical slit width. XAS spectra were obtained at the zero time point and then at a later time point, 4 h or 14 h. The spectra from the two time points were processed and analysed using EXAFS PAK.

[2] = Stability of As-LHP complexes in cell medium (IMDM) by XAS; assay type: physicochemical; conditions: 37° C., 0 h vs 24 h
Experimental: The stability of the two most promising As-LHP complexes was also studied in cell medium (IMDM). Samples were prepared by dissolving MeAs(LHP) or PhAs(LHP) (1.5 mM) in IMDM which was maintained at 37° C. The same protocol was followed as that for the Milli-Q water stability studies. XAS spectra were obtained at the zero time point and then at 24 h. As with the Milli-Q water samples, the spectra from the two time points were processed, fitted and quantified using EXAFSPAK.

Row | Structure (SMILES) | IC50 as percentage of that of ATO (K562 cells) | stability in Milli-Q water ([1]; 0 h vs 4 h) | IC50 as percentage of that of HyAs(LHP) (K562 cells) | agreement between As K-edge XANES spectra at the two time points [2] | stability in IMDM ([2]; XANES) | agreement between As K-edge XANES spectra at the two time points ([1]; 0 h vs 14 h) | stability in Milli-Q water ([1]; 0 h vs 14 h)
1 | CC(=O)N[C@H]1CS[As](O)SC[C@@H](C(=O)O)NC(=O)[C@H](CCCNC(=N)N)NC(=O)[C@H](CCCNC(=N)N)NC(=O)[C@H](CC(C)C)NC(=O)[C@H](CCCNC(=N)N)NC(=O)[C@H](Cc2c[nH]cn2)NC(=O)[C@H](Cc2ccc(O)cc2)NC(=O)[C@H](C)NC1=O (some centres unmarked) [HyAs(LHP)] | 60% | not stable in Milli-Q water for 4 h; also recorded: lack of stability | – | – | – | – | –
2 | CC(=O)N[C@H]1CS[As](C)SC[C@@H](C(=O)O)NC(=O)[C@H](CCCNC(=N)N)NC(=O)[C@H](CCCNC(=N)N)NC(=O)[C@H](CC(C)C)NC(=O)[C@H](CCCNC(=N)N)NC(=O)[C@H](Cc2c[nH]cn2)NC(=O)[C@H](Cc2ccc(O)cc2)NC(=O)[C@H](C)NC1=O (some centres unmarked) [MeAs(LHP)] | 37% | – | 60% | 82% | reasonable stability | 93% | good stability

Source: US11819489B2 (priority 2017, dated 2023)
